Assay: yeast display, Sf9 membrane polyspecificity reagent, FACS + sequencing; frameworks hold sequencing errors
How it was run: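 Sorting gates, low and high (top ~1%), were placed on anti-HA fluorescence to track expression and on streptavidin fluorescence to track reagent binding. A clone's polyreactivity label is taken from the gate it came out of. The reagent was 10% biotinylated, detergent-solubilized Sf9 membrane, applied for 1 hour at 4 °C to galactose-induced yeast display cells.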

| Sequence | polyreactivity (PSR sort gate) |
| --- | --- |
| QVQLVESGGGLVQAGGSLRLSCAASGSIFLVYGMGWYRQAPGKERELVAAITSSAGSTYYADSVKGRFTISRDNAKNTVYLQMNSLKPEDTAVYYCAARWAWSTYSYYYWGQGTQVTVSS | high polyreactivity |
| QVQLVESGGGLVQAGGSLRLSCAASGSIFLWYDMGWYRQAPGKERECVASITRSGGSTYYADSVKGRFTISRDNAKNTVYLQMNSLKPEDTAVYYCAASGATGRYSVYYHGYTYDYWGQGTQVTVSS | low polyreactivity |
| QVQLVESGGGLVQAGGSLRLSCAASGSIFLYNALGWYRQAPGKERELVAAIYKSGGSTYYADSVKGRFTISRDNEKNSVYLQMNSLKPEDTAVYYCAAGYGSRIRYGSEYDYWGQGTQVTVSS | low polyreactivity |
| QVQLVESGGGLVQAGGSLRLSCAASGSIFLYNAMGWYIQAPGKERELVAAISKSGGSTYYADSVKGRFTISRDNAKNTVYLQMNSLKPEDTAVYYCAADFLPQSYNWYDYWGQGTEVTVSS | low polyreactivity |
| QVQLVESGGGLVQAGGSLRLSCAASGSIFLYNAMGWYRPAPGKERELVAAISKSGGSTYYADSVKGRFTISRDNAKNTVYLQMNSLKPEDTAVYYCAAGYGRRIRYGSEYDYWGQGTQVTVSS | low polyreactivity |
| QVQLVESGGGLVQAGGSLRLSCAASGSIFLYYAMGWYRQAPGKERELVAGINRVGSTNYADSVKGRFTISRDNAKNTVYLQMNSLKPEDTAVYYCNKRGTRSRRRGYWGQGTQVTVSS | low polyreactivity |
| QVQLVESGGGLVQAGGSLRLSCAASGSIFLYYAMGWYRQAPGKERELVATIRGSGSSTYYADSVKGRFTISRDNAKNTVYLQMNSLKPEDTAVYYCAAKGYRWFRHGGYYFKFDYWGQGTQVTVSS | high polyreactivity |
| QVQLVESGGGLVQAGGSLRLSCAASGSIFNAYVMGWYRQAPGKERELVAAISRSGGRTYYADSVKGRFTISRDNATNTVYLQMNCLKPEDTAVYYCAAGYRYNYWGQGSQVTVSS | high polyreactivity |
| QVQLVESGGGLVQAGGSLRLSCAASGSIFNGYAMGWYRQAPGKERELVAAISWNGGRTYYADSVKGRFTISRDNAKNTVYLQMNSLKPEDTAVYYCNKVSGYDVDYWGQGTQVTVSS | high polyreactivity |
| QVQLVESGGGLVQAGGSLRLSCAASGSIFNKNAMGWYRQAPGKERELVAAITSSGSSTYYADSVKGRFTISRDNAKNTVYLQMNSLKPEDTAVYYCNAQYGIRPRAGRTRQKYDYWGQGTQVTVSS | high polyreactivity |
| QVQLVESGGGLVQAGGSLRLSCAASGSIFNKNTMGWYRQAPGKERELVAAISGRTGITTYADSVKGRFTISRDNAKNTVYLQMNSLKPEDTAVYYCNAANRWRGSYDYWGQGTQVTVSS | high polyreactivity |
| QVQLVESGGGLVQAGGSLRLSCAASGSIFNLNAMGWYRQAPGKERELVASISSDGSTYYADSVKGRFTISRDNAKNTVYLQMNSLKPEDTAVYYCNADSQWAFKQLSFDYWGQGTQVTVSS | low polyreactivity |
| QVQLVESGGGLVQAGGSLRLSCAASGSIFNPYDMGWYRQAPGKERELVATISGGGGSTYYADSVKGRFTISRDNAKNTVYLQMNSLKPEDTAVYYCNKTDFNTNDLKFDYWGQGTQVTVSS | low polyreactivity |
| QVQLVESGGGLVQAGGSLRLSCAASGSIFNRYAMGWYRQEPGKERELVAAISRSGGRTYYADSVKGRFTISRDNAKNTVYLQMNSLKPEDTAVYYCAAQSYLHYGYWGQGTQVTVSS | high polyreactivity |
| QVQLVESGGGLVQAGGSLRLSCAASGSIFNRYARGWYRQAPGKERELVAAISSTGSTYYADSVKGRFTISRDNAKNTVYLQMNSLKPEDTAVYYCNADATHDWLRVDTYEYWGQGTQVTVSS | low polyreactivity |
| QVQLVESGGGLVQAGGSLRLSCAASGSIFNRYTMGWYRQAPGKEREFVAAIRNSGSRTYYADSVKRRFTISRDNAKNTVYLQMNSLKPEDTAVYYCAADGPLISSESYYWGQGTQVTVSS | low polyreactivity |
| QVQLVESGGGLVQAGGSLRLSCAASGSIFNSNAMGWYRPAPGKEREFVATITQTGSSTYYADSVKGRFTISRDNAKNTVYLQMNSLKPEETAVYYCAVDWILYEYEDDFWYRYDYWGQGTQVTVSS | low polyreactivity |
| QVQLVESGGGLVQAGGSLRLSCAASGSIFNSNGMGWYRQAPGKERELVAAITGGGSTNYADSVKGRFTISRDYAKNTVYLQMNSLKPEDTAVYYCAKRSYRTHTYDYWGQGTQVTVSS | low polyreactivity |
| QVQLVESGGGLVQAGGSLRLSCAASGSIFNSYAMGWYRQAPGKERELVAAISSGGGRTYYADSVKGRFTISRDNAKNTVYLQMNSLKPEDTAVYYCNARAVYRFDYWGQGTQVTVSS | high polyreactivity |
| QVQLVESGGGLVQAGGSLRLSCAASGSIFNTYAMGWYRQAPGKERELVAAISRSGDSTYYADSVKGRFTISRDNAKNTVYLQMNSLKPEDTAVYYCATGRTDHGYYYWGQGTQVTVSS | high polyreactivity |
| QVQLVESGGGLVQAGGSLRLSCAASGSIFNWYALGWYRQAPGKDRELVAAISKSGGRPYYADSVKGRFTISRDNAKNTVYLQKNSLKPEDTAVFSCNAPRFVGLNVYGYDYWGQGTQVTVSS | high polyreactivity |
| QVQLVESGGGLVQAGGSLRLSCAASGSIFNYNMGWYRQAPGKERELVAAVSTNYADSVKGRFTISRDNAKNTVYLQMNSLKPEDTAVYYCGVTPEKSGDEYDYWGQGTQVTVSS | low polyreactivity |

| Sequence | polyreactivity (PSR sort gate) |
| --- | --- |
| QVQLVESGGGLVQAGGSLRLSCAASGSIFNYNMGWYRQAPGKERELVAAVSTNYADTVKGRFTISRDNAKNTVYLQMNSLKPEDTAVYYCGVTPEKSGDEYDYGGQGTQVTVSS | low polyreactivity |
| QVQLVESGGGLVQAGGSLRLSCAASGSIFNYSAMGWYRQAPGKERELVAAITTSGGNTYYADSVQGRFTISRDNAKNTVYLQMNSLKPEDSAVYYCARTVSRYGTGNMDYWGQGTKVTVSS | low polyreactivity |
| QVQLVESGGGLVQAGGSLRLSCAASGSIFNYYALGWYRQAPGKEREFVADISGSGSSTYYADSVKGRFTISRDNAQNTVYLQMNSLKPEDTAVYYCNAEYYWGVGYYPYSDYGYWGQGTQVTVSS | low polyreactivity |
| QVQLVESGGGLVQAGGSLRLSCAASGSIFNYYAMGWYRQAPGKERELVAAITTSGGNTYYADSVKGRFTISRDNAKNTVYLQMNSLKPEDTAVYYCNTVYAGAAWYQYGYWGQGTQVTVSS | low polyreactivity |
| QVQLVESGGGLVQAGGSLRLSCAASGSIFNYYGMGWYRQAPGKERELVAAISVRGGRTYYADSVKGRFTISRDNAKNTVYLQMNSLKPEDTAVYYCAADGGYSLGYYDDELDYWGQGTQVTVSS | low polyreactivity |
| QVQLVESGGGLVQAGGSLRLSCAASGSIFPAYAMGWYRQAPGKERELVAAITDRCGSTYYADSVKGRFTISRDNANNTVSLQMNSLKPEDTYWGQGTQVTVSS | low polyreactivity |
| QVQLVESGGGLVQAGGSLRLSCAASGSIFPAYAMGWYRQAPGKERELVAAITGSGGSTYYADSVKGRFTISRDNAKNTVYLQLNSLKPEDTAVYYCAATIRQFRRYDYWGQGTQVTVSS | low polyreactivity |
| QVQLVESGGGLVQAGGSLRLSCAASGSIFPAYTMGWYRPAPGKERELVAAITRRGGSTYYADSVKGRFTISRDNSKNTVYLQMNSLKPEDTAVYYCAAGGLYTPYDYWGQGTQVTVSS | low polyreactivity |
| QVQLVESGGGLVQAGGSLRLSCAASGSIFPDNTMGWYRQAPGKERELVAAIDGRGGTTYYADSVKGRFTISRDNAKNTVYLQMNSLKPEDTAVYYCARDIGHSARYDYWGQGTQVTVSS | low polyreactivity |
| QVQLVESGGGLVQAGGSLRLSCAASGSIFPEYAMGWYIQAPGKERELVASISSGGSSTYYADSVKGRFTISRDNAKNTVYLQMNSLKPEDTAVYYCARRRSYKRRFDYWGQGTQVTVSS | low polyreactivity |
| QVQLVESGGGLVQAGGSLRLSCAASGSIFPEYAMGWYRQAPGKERELVAAITTSGGSTYYADSVKGRFTISRDNAKNTVYLQMNSLKPEDTAVYYCAAGTQAHAYVVRPIEMDYWGQGTQVTVSS | low polyreactivity |
| QVQLVESGGGLVQAGGSLRLSCAASGSIFPFYAMGWSRQAPGKERELVAAITWISGRTYYADSVKGRFTISRDNAKTTVYLQRNRLKPEDTAVYYCAVDYYSWLRRDDYWGQGTQVTVSS | low polyreactivity |
| QVQLVESGGGLVQAGGSLRLSCAASGSIFPFYAMGWYRQAPGKERELVATISWSGGRTYYADSVKGRFTISRDNAKNTVYLQMNSLKPEDTAVYYCAAGSYHYPNAYYYWGHGTQVTVSS | high polyreactivity |
| QVQLVESGGGLVQAGGSLRLSCAASGSIFPGYAMGWSRQAPEKERELVAAISRRGGSTYYADSVKGRFTISRDNAKNTVYLQMNSLKPEDNAVYYCAKDGTGAGTYDYWGQGTKVTVSS | low polyreactivity |
| QVQLVESGGGLVQAGGSLRLSCAASGSIFPGYAMGWYRQAPGKERELVAAISSGGSTNYADSVKGRFTISRDNAKNTVYLQMNSLKPEDTAVYYCAARVWRYHVYAFYYWGQGTQVTVSS | high polyreactivity |
| QVQLVESGGGLVQAGGSLRLSCAASGSIFPGYAMGWYRQAPGKERELVATIRWSSGSRTNYADSVKGRFTISRDNAKNTVYLQMNSLKPEDTAVYYCAAGSRRYKYDYWGQGTQVTVSS | high polyreactivity |
| QVQLVESGGGLVQAGGSLRLSCAASGSIFPGYAMGWYRQAPGKERELVATITWSGGSTYYADSVKGRFTISRDKAKNTVYLQMNSLKPEDTAVYYCNADSNWYYQWNYYGLYDYWGQGTQVTVSS | low polyreactivity |
| QVQLVESGGGLVQAGGSLRLSCAASGSIFPHNAMGWYRQAPGKERVLVASITSRGGITYYADSVKGRFTISRDNAKNTVYLQMNSLKPEDTAVYYCAADLYIYPYDYWGQGTQVTVSS | low polyreactivity |
| QVQLVESGGGLVQAGGSLRLSCAASGSIFPHNAMGWYRTAPGKDRELVAAISWRDVISYYADSVKGRFTISRDNAKNTVYLQMNSLKPEDTAVYYCAAELRVYGVDYEYWGQGTQVTVSS | high polyreactivity |
| QVQLVESGGGLVQAGGSLRLSCAASGSIFPHNTMGWYRQAPGNERELVAAISRSGGSTYYADSVKGRFTISRDNAKNTVYLQMNSLKPEDTAVYYCARDSYDVGHQVVSDERLYDYWGQGTQVTVSS | low polyreactivity |
| QVQLVESGGGLVQAGGSLRLSCAASGSIFPHYAMGWYRQAPGKERELVAAISSGTSTNYADSVKGRFTISRDNAKNTVYLQMNSLKPEDTAVYYCAADIGVYGERREEEFDYWGQGTQVTVSS | low polyreactivity |

Source: the nanobody polyreactivity screen of Harvey et al. (2022)
